Non-standard residues stand in square brackets, D forms with d. Residues, ends and D or L forms follow the SMILES beside them. Primed or numbered codes have the meaning given here. No end group written: not given here. Phe(4-Me) = Cc1ccc(C[C@H](N)C(=O)O)cc1; FITC′ = not defined here
Legend:
ADGRG2-ΔGPS-β F845A = target: T1, ADGRG2-ΔGPS-β F845A (Mus musculus, UniProt Q8CJ12, F859A); assay: GloSensor cAMP assay; format: cell-based; details: mutant F845A; HEK293, cAMP Glosensor
T1 construct: expressed in transfected cells; host or cells: HEK293
Source text: (§1) Wildtype ADGRG2 full-length (ADGRG2-FL) was cloned from mouse total cDNA libraries using the following primers: forward, […]; reverse, […], and then ADGRG2-FL, ADGRG2 C-terminal truncation mutant (ADGRG2-β), and ADGRG2-ΔGPS-β (the entire ECD of ADGRG2 was deleted) were subcloned into the pcDNA3.1 expression vector. The ADGRG2-ΔGPS-β mutants (T610A, Y611A, C614A, S661A, W662A, I663A, L665A, Y666A，N667A, F671A, L679A, L683A, I730A, V731A, F741A, F747A, W757A, I758A, N759A, S760A, V762A, F764A, Y765A, V768A, V769A, F772A, V774A, W824A, F826A, F828A, F829A, V834A, V836A, F838A, M839A, I844A, F845A) were generated using a QuikChange Mutagenesis Kit (Stratagene). All mutations were verified by DNA sequencing.
(§2) The Glosensor cAMP assay was performed as described ([6], [39], [40]). HEK293 cells were transfected with the GloSensor plasmid and the desired expression plasmids in 24-well dishes. Twenty-four hours after transfection, the cells were plated on 96-well plates at a cell density of 20,000 cells/well. The cells were maintained in Dulbecco’s modified Eagle’s medium for another 24 h, washed with PBS, and then incubated with 100 μl of solution containing 10% fetal bovine serum, 2% (v/v) GloSensor cAMP reagent, and 88% CO2-independent medium in each well for 2 h. The cAMP signal was examined using a luminescence counter (Mithras LB 940).

ADGRG2-ΔGPS-β N667A = target: T2, ADGRG2-ΔGPS-β N667A (Mus musculus, UniProt Q8CJ12, N681A); assay: GloSensor cAMP assay; format: cell-based; details: mutant N667A; HEK293, cAMP Glosensor
T2 construct: expressed in transfected cells; host or cells: HEK293
Source text: as §1, §2

ADGRG2-ΔGPS-β I741A = target: T3, ADGRG2-ΔGPS-β I741A (Mus musculus, UniProt Q8CJ12, I755A); assay: GloSensor cAMP assay; format: cell-based; details: mutant I741A; HEK293, cAMP Glosensor
T3 construct: expressed in transfected cells; host or cells: HEK293
Source text: as §1, §2

ADGRG2-ΔGPS-β V774A = target: T4, ADGRG2-ΔGPS-β V774A (Mus musculus, UniProt Q8CJ12, V788A); assay: GloSensor cAMP assay; format: cell-based; details: mutant V774A; HEK293, cAMP Glosensor
T4 construct: expressed in transfected cells; host or cells: HEK293
Source text: as §1, §2

Rluc-ADGRG2-ΔGPS-β N667A = target: T5, Rluc-ADGRG2-ΔGPS-β N667A (mouse, UniProt Q8CJ12-3 38-995, N667A); assay: FRET or BRET; HEK293 cells transfected with Rluc-ADGRG2-ΔGPS-β WT or mutants, stimulated by increasing concentrations of FITC-conjugated VPM-p15; saturation curves fitted with GraphPad; each experiment repeated 6 times; details: one partner purified
T5 construct: ADGRG2 (GPR64), mouse, ADGRG2-ΔGPS-β: the entire ECD removed; source: HEK293, transfected, on cells; not shown: Rluc, N-terminal, kept

Rluc-ADGRG2-ΔGPS-β V774A = target: T6, Rluc-ADGRG2-ΔGPS-β V774A (mouse, UniProt Q8CJ12-3 38-995, V774A); assay: as above; details: one partner purified
T6 construct: ADGRG2 (GPR64), mouse, ADGRG2-ΔGPS-β: the entire ECD removed; source: HEK293, transfected, on cells; not shown: Rluc, N-terminal, kept

Rluc-ADGRG2-ΔGPS-β L683A = target: T7, Rluc-ADGRG2-ΔGPS-β L683A (mouse, UniProt Q8CJ12-3 38-995, L683A); assay: as above; details: one partner purified
T7 construct: ADGRG2 (GPR64), mouse, ADGRG2-ΔGPS-β: the entire ECD removed; source: HEK293, transfected, on cells; not shown: Rluc, N-terminal, kept

Rluc-ADGRG2-ΔGPS-β V834A = target: T8, Rluc-ADGRG2-ΔGPS-β V834A (mouse, UniProt Q8CJ12-3 38-995, V834A); assay: as above; details: one partner purified
T8 construct: ADGRG2 (GPR64), mouse, ADGRG2-ΔGPS-β: the entire ECD removed; source: HEK293, transfected, on cells; not shown: Rluc, N-terminal, kept

Rluc-ADGRG2-ΔGPS-β F747A = target: T9, Rluc-ADGRG2-ΔGPS-β F747A (mouse, UniProt Q8CJ12-3 38-995, F747A); assay: as above; details: one partner purified
T9 construct: ADGRG2 (GPR64), mouse, ADGRG2-ΔGPS-β: the entire ECD removed; source: HEK293, transfected, on cells; not shown: Rluc, N-terminal, kept

Rluc-ADGRG2-ΔGPS-β V731A = target: T10, Rluc-ADGRG2-ΔGPS-β V731A (mouse, UniProt Q8CJ12-3 38-995, V731A); assay: as above; details: one partner purified
T10 construct: ADGRG2 (GPR64), mouse, ADGRG2-ΔGPS-β: the entire ECD removed; source: HEK293, transfected, on cells; not shown: Rluc, N-terminal, kept

Rluc-ADGRG2-ΔGPS-β F772A = target: T11, Rluc-ADGRG2-ΔGPS-β F772A (mouse, UniProt Q8CJ12-3 38-995, F772A); assay: as above; details: one partner purified
T11 construct: ADGRG2 (GPR64), mouse, ADGRG2-ΔGPS-β: the entire ECD removed; source: HEK293, transfected, on cells; not shown: Rluc, N-terminal, kept

Rluc-ADGRG2-ΔGPS-β I844A = target: T12, Rluc-ADGRG2-ΔGPS-β I844A (mouse, UniProt Q8CJ12-3 38-995, I844A); assay: as above; details: one partner purified
T12 construct: ADGRG2 (GPR64), mouse, ADGRG2-ΔGPS-β: the entire ECD removed; source: HEK293, transfected, on cells; not shown: Rluc, N-terminal, kept

Rluc-ADGRG2-ΔGPS-β F845A = target: T13, Rluc-ADGRG2-ΔGPS-β F845A (mouse, UniProt Q8CJ12-3 38-995, F845A); assay: as above; details: one partner purified
T13 construct: ADGRG2 (GPR64), mouse, ADGRG2-ΔGPS-β: the entire ECD removed; source: HEK293, transfected, on cells; not shown: Rluc, N-terminal, kept

Rluc-ADGRG2-ΔGPS-β F826A = target: T14, Rluc-ADGRG2-ΔGPS-β F826A (mouse, UniProt Q8CJ12-3 38-995, F826A); assay: as above; details: one partner purified
T14 construct: ADGRG2 (GPR64), mouse, ADGRG2-ΔGPS-β: the entire ECD removed; source: HEK293, transfected, on cells; not shown: Rluc, N-terminal, kept
T14 sequence (Q8CJ12 other isoform, or with tags, fused parts or gaps F826A | F826A | F826A F826A): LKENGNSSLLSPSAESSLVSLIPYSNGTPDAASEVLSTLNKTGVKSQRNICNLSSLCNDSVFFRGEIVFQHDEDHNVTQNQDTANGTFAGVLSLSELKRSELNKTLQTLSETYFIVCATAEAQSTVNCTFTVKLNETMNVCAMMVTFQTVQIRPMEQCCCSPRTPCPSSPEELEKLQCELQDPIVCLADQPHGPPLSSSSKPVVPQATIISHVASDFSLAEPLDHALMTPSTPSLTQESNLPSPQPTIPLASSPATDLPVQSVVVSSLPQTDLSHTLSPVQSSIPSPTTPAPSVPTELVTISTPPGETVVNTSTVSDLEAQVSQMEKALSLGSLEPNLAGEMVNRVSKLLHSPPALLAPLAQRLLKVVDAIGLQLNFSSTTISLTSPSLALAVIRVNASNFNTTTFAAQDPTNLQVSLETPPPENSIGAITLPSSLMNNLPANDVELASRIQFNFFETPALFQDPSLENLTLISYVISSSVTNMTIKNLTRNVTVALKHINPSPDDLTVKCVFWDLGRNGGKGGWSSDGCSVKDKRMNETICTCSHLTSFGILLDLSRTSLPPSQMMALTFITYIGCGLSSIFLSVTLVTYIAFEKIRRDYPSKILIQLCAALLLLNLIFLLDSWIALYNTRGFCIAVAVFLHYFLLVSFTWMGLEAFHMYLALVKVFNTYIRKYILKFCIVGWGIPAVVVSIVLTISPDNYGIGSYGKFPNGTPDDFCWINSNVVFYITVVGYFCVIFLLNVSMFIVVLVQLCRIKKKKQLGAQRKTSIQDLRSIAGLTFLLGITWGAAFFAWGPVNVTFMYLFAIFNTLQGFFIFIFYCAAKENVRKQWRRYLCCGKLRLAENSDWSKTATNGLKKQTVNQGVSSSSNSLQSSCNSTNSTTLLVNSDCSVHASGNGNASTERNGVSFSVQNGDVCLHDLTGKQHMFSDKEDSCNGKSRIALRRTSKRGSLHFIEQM

T1 sequence (Q8CJ12 614-1009 F859A limits assumed): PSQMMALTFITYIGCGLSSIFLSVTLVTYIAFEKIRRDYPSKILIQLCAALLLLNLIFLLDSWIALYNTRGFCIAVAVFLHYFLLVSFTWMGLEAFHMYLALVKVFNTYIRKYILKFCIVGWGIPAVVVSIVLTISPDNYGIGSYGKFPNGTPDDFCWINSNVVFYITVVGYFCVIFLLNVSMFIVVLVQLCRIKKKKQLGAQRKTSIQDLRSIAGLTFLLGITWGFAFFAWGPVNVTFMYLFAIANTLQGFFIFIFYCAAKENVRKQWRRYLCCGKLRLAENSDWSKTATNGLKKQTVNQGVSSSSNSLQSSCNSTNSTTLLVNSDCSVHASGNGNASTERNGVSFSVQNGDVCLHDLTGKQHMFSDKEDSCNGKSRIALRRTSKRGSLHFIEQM
T6 sequence (Q8CJ12 other isoform, or with tags, fused parts or gaps V774A | V774A | V774A V774A): as the sequence (Q8CJ12 other isoform, or with tags, fused parts or gaps F826A | F826A | F826A F826A) above, with V737A, A789F counted along it
T8 sequence (Q8CJ12 other isoform, or with tags, fused parts or gaps V834A | V834A | V834A V834A): as the sequence (Q8CJ12 other isoform, or with tags, fused parts or gaps F826A | F826A | F826A F826A) above, with A789F, V797A counted along it
T12 sequence (Q8CJ12 other isoform, or with tags, fused parts or gaps I844A | I844A | I844A I844A): as the sequence (Q8CJ12 other isoform, or with tags, fused parts or gaps F826A | F826A | F826A F826A) above, with A789F, I807A counted along it
T11 sequence (Q8CJ12 other isoform, or with tags, fused parts or gaps F772A | F772A | F772A F772A): as the sequence (Q8CJ12 other isoform, or with tags, fused parts or gaps F826A | F826A | F826A F826A) above, with F735A, A789F counted along it
T10 sequence (Q8CJ12 other isoform, or with tags, fused parts or gaps V731A | V731A | V731A V731A): as the sequence (Q8CJ12 other isoform, or with tags, fused parts or gaps F826A | F826A | F826A F826A) above, with V694A, A789F counted along it
T5 sequence (Q8CJ12 other isoform, or with tags, fused parts or gaps N667A | N667A | N667A N667A): as the sequence (Q8CJ12 other isoform, or with tags, fused parts or gaps F826A | F826A | F826A F826A) above, with N630A, A789F counted along it
T13 sequence (Q8CJ12 other isoform, or with tags, fused parts or gaps F845A | F845A | F845A F845A): as the sequence (Q8CJ12 other isoform, or with tags, fused parts or gaps F826A | F826A | F826A F826A) above, with A789F, F808A counted along it
T3 sequence (Q8CJ12 614-1009 I755A): as the sequence (Q8CJ12 614-1009 F859A limits assumed) above, with I142A, A246F counted along it
T7 sequence (Q8CJ12 other isoform, or with tags, fused parts or gaps L683A | L683A | L683A L683A): as the sequence (Q8CJ12 other isoform, or with tags, fused parts or gaps F826A | F826A | F826A F826A) above, with L646A, A789F counted along it
T9 sequence (Q8CJ12 other isoform, or with tags, fused parts or gaps F747A | F747A | F747A F747A): as the sequence (Q8CJ12 other isoform, or with tags, fused parts or gaps F826A | F826A | F826A F826A) above, with F710A, A789F counted along it
T4 sequence (Q8CJ12 614-1009 V788A limits assumed): as the sequence (Q8CJ12 614-1009 F859A limits assumed) above, with V175A, A246F counted along it
T2 sequence (Q8CJ12 614-1009 N681A): as the sequence (Q8CJ12 614-1009 F859A limits assumed) above, with N68A, A246F counted along it

| Molecule | EC50 (ADGRG2-ΔGPS-β F845A) | EC50 (ADGRG2-ΔGPS-β N667A) | EC50 (ADGRG2-ΔGPS-β I741A) | EC50 (ADGRG2-ΔGPS-β V774A) | EC50 (Rluc-ADGRG2-ΔGPS-β N667A) | EC50 (Rluc-ADGRG2-ΔGPS-β V774A) | EC50 (Rluc-ADGRG2-ΔGPS-β L683A) | EC50 (Rluc-ADGRG2-ΔGPS-β V834A) | EC50 (Rluc-ADGRG2-ΔGPS-β F747A) | EC50 (Rluc-ADGRG2-ΔGPS-β V731A) | EC50 (Rluc-ADGRG2-ΔGPS-β F772A) | EC50 (Rluc-ADGRG2-ΔGPS-β I844A) | EC50 (Rluc-ADGRG2-ΔGPS-β F845A) | EC50 (Rluc-ADGRG2-ΔGPS-β F826A) |
| --- | --- | --- | --- | --- | --- | --- | --- | --- | --- | --- | --- | --- | --- | --- |
| CC[C@H](C)[C@H](NC(=O)CNC(=O)[C@H](Cc1ccc(C)cc1)NC(=O)[C@H](CO)NC(=O)[C@@H](N)C(C)C)C(=O)N[C@@H](CC(C)C)C(=O)N[C@@H](CC(C)C)C(=O)N[C@@H](CC(=O)O)C(=O)N[C@@H](CC(C)C)C(=O)N[C@@H](CO)C(=O)N[C@@H](CCCNC(=N)N)C(=O)N[C@H](C(=O)N[C@@H](CO)C(=O)N[C@@H](CC(C)C)C(=O)N1CCC[C@H]1C(=O)O)[C@@H](C)O [VPM-p15] (H-VS[Phe(4-Me)]GILLDLSRTSLP-OH) | 3210 nM | 1240 nM | 1550 nM | 1280 nM | – | – | – | – | – | – | – | – | – | – |
| VS[Phe(4-Me)]GILLDLSRTSLP-{FITC′} [FITC-conjugated VPM-p15 (ADGRG2 Stachel peptide p15 T1V/F3Phe(4-Me))] | – | – | – | – | 913 nM | 1080 nM | 1160 nM | 1120 nM | 759 nM | 838 nM | 842 nM | 1540 nM | 1360 nM | 1170 nM |
